This is an account of results in patent publication EP1881070A2.

For test [1], the target named is human zalpha11 receptor (human) (UniProt Q9HBE5). Put plainly: 125I-ligand competition on BaF3/zalpha11 cells, relative to non-specific competitor Interferon Gamma.
The target is the same in test [2]. Put plainly: 125I-ligand competition on BaF3/zalpha11 cells, relative to no competitor.
For test [3] the target is unchanged. In words: 125I-ligand competition on Raji cells, relative to no competitor.
Test [4] shares this target. Put plainly: 125I-ligand competition on Raji cells, relative to non-specific competitor Interferon Gamma.
Test [5] shares this target. Put plainly: cell-based or functional assay.

Chain of human zalpha11 receptor (human) (Q9HBE5 20-538 limits assumed): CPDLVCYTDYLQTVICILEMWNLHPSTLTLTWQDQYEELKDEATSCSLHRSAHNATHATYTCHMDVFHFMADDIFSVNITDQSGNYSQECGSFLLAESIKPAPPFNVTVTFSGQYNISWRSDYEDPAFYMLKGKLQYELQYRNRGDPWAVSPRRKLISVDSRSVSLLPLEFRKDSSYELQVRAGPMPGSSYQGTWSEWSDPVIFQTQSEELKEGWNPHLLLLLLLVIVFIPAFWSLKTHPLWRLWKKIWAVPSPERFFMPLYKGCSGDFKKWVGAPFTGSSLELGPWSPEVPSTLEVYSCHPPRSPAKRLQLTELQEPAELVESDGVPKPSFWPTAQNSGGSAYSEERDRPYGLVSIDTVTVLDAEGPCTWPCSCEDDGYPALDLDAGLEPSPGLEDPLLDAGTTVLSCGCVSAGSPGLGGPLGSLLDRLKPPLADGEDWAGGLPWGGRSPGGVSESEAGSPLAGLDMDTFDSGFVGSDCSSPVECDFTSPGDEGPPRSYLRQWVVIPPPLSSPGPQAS
Chain of human zalpha11 Ligand-saporin immunotoxin conjugate (Q9HBE4 32-162): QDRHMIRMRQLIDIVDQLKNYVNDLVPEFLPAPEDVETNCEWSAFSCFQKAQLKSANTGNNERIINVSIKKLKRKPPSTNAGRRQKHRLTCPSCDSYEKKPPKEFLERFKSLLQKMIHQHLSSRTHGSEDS

As to “purified CHO recombinant human zalpha11 Ligand (huzalpha11L-CHO) (from UniProt Q9HBE4 32-162)”, the fold decrease in binding of 125I-labeled ligand at 250 fold molar excess in test [1] was 2 fold; in test [2], 3.06 fold; in test [3], 3.7 fold; in test [4], 3 fold.
Turning to “human zalpha11 Ligand-saporin immunotoxin conjugate”, in test [5], the growth inhibition of IM-9 cells at the maximal conjugate concentration (250 ng/ml), Alamar Blue was 79% and the growth inhibition of RAMOS cells at the maximal conjugate concentration (250 ng/ml), Alamar Blue was determined as 65%.
